The values below come from patent publication US6670161B1, “Compositions and methods for template-dependent enzymatic synthesis of nucleic acid” (The Board of Trustees of the Leland Stanford Jr. University, priority 1991, dated 2003).

Like-named read-outs stand apart in the source and are kept apart here.

The test system of data set [1] is optimally gapped salmon sperm DNA, dNTP's. The data set is described as follows: Kinetic parameters of DNA polymerase α on gapped DNA (Lineweaver-Burk). As to conditions: for Km: gapped salmon sperm DNA. It counts as biochemical. The text has this:
Characterization of Affinity. The four subunit-DNA polymerase α/primase complex was purified from human KB cells as described T. Wang et al., J. Biol. Chem. 259:1854 (1984) and used for comparison to the single polypeptide recombinant polymerase α for their respective affinities for dNTP, primer-terminus, and gapped DNA. Prior to the comparison, both the immunopurified recombinant single subunit-polymerase α and the four subunit-polymerase α/primase complex were stored in buffer containing 30% sucrose, 20% ethylene glycol, 50 mM Tris HCL, pH 8.6, 1 mM βME, 1 mM EDTA at −80° C. or stored on packed ice at 4° C.
(§1) The standard assay for DNA polymerase α with gapped DNA was performed according to P. A. Fisher and D. Korn, J. Biol. Chem 252:6528 1977). Reactions were performed using optimally gapped salmon sperm DNA in 20 mM Tris.HCl, pH 8.0, 2 mM β-mercaptoethanol (“βME”), 200 μg/ml BSA, 10 mM MgCl2, 50 μM dNTP's with [α-^32P]dATP as the label. One unit of DNA polymerase is defined as the amount of polymerase that incorporates 1 nmole of labeled dNTP into acid-insoluble DNA at 37° C. in 60 min. […] All Kinetic parameters were calculated from Lineweaver-Burk plots by the method of least squares. Km was calculated of the basis of 3′-OH primer termini.
The rate of catalysis of these two forms was also measured. The Kcat values determined for the two forms of polymerase α are of a similar order of magnitude.

In data set [2] the test system is oligo(dT)12: poly(dA)290. The data set is described as follows: Km for primer terminus. As to conditions: oligo(dT)12: poly(dA)290, 2 mM MgCl2, 50 μM dTTP. It counts as biochemical. As to the method: as §1
A short description of data set [3]: Thermostability: preincubation at 37° C. before assaying polymerase activity. The format is physicochemical. As to the method:
Thermosensitivity. The thermostability of the two forms of polymerase α was also compared; this was done by preincubation at 37° C. for various times before assaying polymerase activity. […] (data not shown). These decreases in polymerase activity was not due to proteolysis of the polymerase protein.

Data set [4] concerns lacZ α-complementing gene in M13mp2 DNA. Briefly: DNA synthetic fidelity, forward mutation assay. It counts as biochemical. As to conditions: light blue and colorless plaques. As to the method: (§2) DNA Synthetic Fidelity. The fidelity of the single catalytic subunit and the four subunit polymerase α/primase was measured and compared. Three methods were used to measure a single round of gap filling synthesis within the lacZ α-complementing gene in M13mp2 DNA. See T. A. Kunkel et al. Mol. Cell. Biol. 9:4447 (1989). In all three assays, a gapped, double-stranded M13mp2 DNA is constructed which contains a single-stranded gap as the mutation target. The three assays are: (A) forward mutation assay, (B) opal codon reversion assay, and (C) assay for −1 base frame-shift.
(§3) The DNA synthetic mutational frequency and the error rate of the two forms of DNA polymerase α measured by these three methods are summarized in Table III. […] The DNA synthetic fidelity values obtained are also in agreement with the values previously determined for the four subunit polymerase α.

Data set [5] shares this test system. Briefly: DNA synthetic fidelity, base-substitution (opal codon) reversion assay. The format is biochemical. As to the method:
as §2, §3

Data set [6] has the same test system. The data set is described as follows: DNA synthetic fidelity, minus-one frame-shift reversion assay. The format is biochemical. As to the method: as §2, §3
In data set [7] the test system is matched 24 mer or mismatched 29 mer annealed to M13mp18 single stranded DNA. Briefly: Proofreading exonuclease assay on primed M13mp18. It counts as biochemical. Conditions: up to 30 minutes at 37° C. As to the method:
Proofreading exonuclease activity of the recombinant single subunit poymerase α was assayed with a singly primed M13mp18 template (SEQ ID NO:5), primed either with a matched 24 mer (SEQ ID NO:4) (FIG. 8B) or a mismatched 29 mer (SEQ ID NO:2) (FIG. 8A), each ^32P-labeled at the 5′ end by T4 polynucleotide kinase. The mismatched 29 mer (SEQ ID NO:2) contains 9 mismatched T's on the 3′ terminus. Correct proofreading of this 29 mer (SEQ ID NO:2) annealed to M13mp18 (SEQ ID NO:3) would produce a 20 mer in the absence of deoxynucleotide triphosphates (dNTPs).
To perform the assay, two oligonucleotides, the universal primer, a 24 mer (matched primer) and RD29 mer (mismatched primer), were 5′-end labeled with ^32P-ATP and annealed to M13mp18 single stranded template. 0.1 pmole of this primed M13 was incubated in 20 mM Tris.HCl, pH 7.5, 10 mM MgCl2, 20 mM KCl and 2 mM dithiothreitol at 37° C. in the presence of polymerase in a final volume of 12 μl. Aliquots of 3 μl each were removed at 0, 2.5, 10 and 30 minutes into an equal volume of deionized formamide containing 1 mM EDTA, 0.1% xylene cyanol and 0.1% bromophenol blue and placed on ice. After heating at 95° C. for 5 minutes, one-half of the sample was loaded onto an 18% polyacrylamide, 7 M urea, Tris-borate-EDTA gel. […]

B1: Single subunit recombinant Pol α: recombinant human DNA polymerase α catalytic polypeptide (180 kDa) immunopurified from AcHDPα infected Sf9 cells (protein)
chain: MAPVHGDDSLSDSGSFVSSRARREKKSKKGRQEALERLKKAKAGEKYKYEVEDFTGVYEEVDEEQYSKLVQARQDDDWIVDDDGIGYVEDGREIFDDDLEDDALDADEKGKDGKARNKDKRNVKKLAVTKPNNIKSMFIACAGKKTADKAVDLSKDGLLGDILQDLNTETPQITPPPVMILKKKRSIGASPNPFSVHTATAVPSGKIASPVSRKEPPLTPVPLKRAEFAGDDVQVESTEEEQESGAMEFEDGDFDEPMEVEEVDLEPMAAKAWDKESEPAEEVKQEADSGKGTVSYLGSFLPDVSCWDIDQEGDSSFSVQEVQVDSSHLPLVKGADEEQVFHFYWLDAYEDQYNQPGVVFLFGKVWIESAETHVSCCVMVKNIERTLYFLPREMKIDLNTGKETGTPISMKDVYEEFDEKIATKYKIMKFKSKPVEKNYAFEIPDVPEKSEYLEVKYSAEMPQLPQDLKGETFSHVFGTNTSSLELFLMNRKIKGPCWLEVKSPQLLNQPVSWCKVEAMALKPDLVNVIKDVSPPPLVVMAFSMKTMQNAKNHQNEIIAMAALVHHSFALDKAAPKPPFQSHFCVVSKPKDCIFPYAFKEVIEKKNVKVEVAATERTLLGFFLAKVHKIDPDIIVGHNIYGFELEVLLQRINVCKAPHWSKIGRLKRSNMPKLGGRSGFGERNATCGRMICDVEISAKELIRCKSYHLSELVQQILKTERVVIPMENIQNMYSESSQLLYLLEHTWKDAKFILQIMCELNVLPLALQITNIAGNIMSRTLMGGRSERNEFLLLHAFYENNYIVPDKQIFRKPQQKLGDEDEEIDGDTNKYKKGRKKAAYAGGLVLDPKVGFYDKFILLLDFNSLYPSIIQEFNICFTTVQRVASEAQKVTEDGEQEQIPELPDPSLEMGILPREIRKLVERRKQVKQLMKQQDLNPDLILQYDIRQKALKLTANSMYGCLGFSYSRFYAKPLAALVTYKGREILMHTKEMVQKMNLEVIYGDTDSIMINTNSTNLEEVFKLGNKVKSEVNKLYKLLEIDIDGVFKSLLLLKKKKYAALVVEPTSDGNYVTKQELKGLDIVRRDWCDLAKDTGNFVIGQILSDQSRDTIVENIQKRLIEIGENVLNGSVPVSQFEINKALTKDPQDYPDKKSLPHVHVALWINSQGGRKVKAGDTVSYVICQDGSNLTASQRAYAPEQLQKQDNLTIDTQYYLAQQIHPVVARICEPIDGIDAVLIATWLGLDPTQFRVHHYHKDEENDALLGGPAQLTDEEKYRDCERFKCPCPTCGTENIYDNVFDGSGTDMEPSLYRCSNIDCKASPLTFTVQLSNKLIMDIRRFIKKYYDGWLICEEPTCRNRTRHLPLQFSRTGPLCPACMKATLQPEYSDKSLYTQLCFYRYIFDAECALEKLTTDHEKDKLKKQFFTPKVLQDYRKLKNTAEQFLSRSGYSEVNLSKLFAGCAVKS
B1 showed a Kcat in data set [1] of 1.6 s⁻¹. Moreover, the Km is 1.2 µM in data set [1] (10 mM MgCl2, pH 8.0, read-out: Km (dNTP)); 190 µM in data set [1] (read-out: Km (DNA in nucleotide)); 0.4 µM in data set [2]. In data set [3], the “Thermostability, % activity after 30 min at 37° C.” value was 68%. The Mutant frequency in data set [4] was 300 ×10^−4; in data set [5] (blue plaques) it was 370 ×10^−6; in data set [6] (blue plaques), 170 ×10^−5. Besides, the Error rate is recorded as 1/4900 in data set [5] and 1/1800 in data set [6]. Also, the “3′-5′ exonuclease activity on matched and mismatched primer-template” value in data set [7] is “no apparent 3′-5′ exonuclease was detected”.
